Columns and labels:
[1] = target: acetylated, soluble type I collagen from rat tail, natively folded (triple-helical) (rat) (UniProt P02454)
[2] = target: gelatin derived from type I collagen from rat tail (acetylated collagen denatured at 95 °C for 10 min) (rat) (UniProt P02454)

Substance | KM of degradation of natively folded type I collagen (Michaelis-Menten kinetics, discontinuous cleavage assay with fluorescamine detection of neo-N-termini, 25 °C) [1] | KM of gelatin degradation (Michaelis-Menten kinetics, discontinuous cleavage assay with fluorescamine detection of neo-N-termini, 25 °C) [2]
ColG collagenase unit from Clostridium histolyticum (from UniProt Q9X721 119-789) (enzyme) | 3.4 µM | 1.35 µM
ColQ1 collagenase unit (Y94-G765) from Bacillus cereus strain Q1 (from UniProt B9J3S4 94-765) (enzyme) | 1.72 µM | 1.36 µM

Reference: article PMC7893005
